From patent US11702469B2, “Recombinant EGFL7, EGFL7 antibodies, and uses thereof” (Ohio State Innovation Foundation, priority 2017, dated 2023)

Tests used:
human AML blasts = test: CFU assay, blasts of AML patients; type: cell-based
Experimental: FIG. 4A-4E. EGFL7 stimulates the proliferation of human and mouse acute myeloid leukemia (AML cells). Bone marrow cells from wild-type (WT) mice (FIG. 4A), and Mll^PTD/WTFlt3^ITD/WT mice (FIG. 4B), were treated without (Unstim) or with 0.1, 0.25, or 0.5 μM recombinant mouse Egfl7 (rEgfl7) in IMDM medium+2% bovine serum albumin (BSA) for 24, 48, 72 and 96 hours. At the indicated time points, the number of viable cells was determined by trypan blue dye exclusion assay. Each condition was repeated in triplicate. NS indicates not significant, * indicates P<0.05, ** indicates P<0.01. (FIG. 4C). […] The colonies with more than 50 cells were enumerated using a light microscope. Each condition for each patient (n=4) was plated in triplicate, ** indicates P<0.01, *** indicates P<0.001. (FIG. 4D) Blasts from AML patients (n=4) were cultured in SFEM+2% BSA in the absence or presence of 0.25 μM rEGFL7 for 20 min. Total proteins were extracted for immunoblotting of phosphorylated AKT-S473 (pAKT-S473), total AKT and GAPDH. (FIG. 4E) AML blasts from Mll^PTD/WTFlt3^ITD/WT mice (n=3) were cultured in IMDM medium+2% BSA in the absence or presence of […] recombinant rEgfl7 for 20 min. […]
FIG. 5. […] The number of colonies with more than 50 cells was counted under a light microscope. […]
Colonies with more than 50 cells were counted using a light microscope. […]

HEY1 mRNA = HEY1 mRNA qRT-PCR in primary AML blasts; type: cell-based, human; settings: 100 μg/ml, 2 and 10 h, vs IgG
Experimental: FIG. 26. Blocking EGFL7 increases the NOTCH downstream target, HEY1, in human AML patient blasts (A) Primary blasts from AML patients were cultured in SFEM medium with 10% FBS in the absence or presence of 100 μg/ml of IgG or anti-human EGFL7 antibody for 2 and 10 h. Total RNAs were extracted for qRT-PCR analysis of HEY1 mRNA with β-ACTIN as internal control. *p<0.05, ***p<0.001 vs IgG; ns=not significant.
Total RNA was extracted using Trizol reagent (Invitrogen, Carlsbad, Calif., USA). cDNA was synthesized using SuperScript III reagents (Invitrogen) according to the manufacturer's instruction. Quantitative Real-Time RT-PCR was performed using commercially available TaqMan Gene Expression Assay primers and the 7900HT Fast Real-Time PCR System (Applied Biosystems, Foster City, Calif., USA). The expression levels of target genes were normalized to β-ACTIN. Relative expression was calculated by using the comparative 2^−ΔΔct method.

AML cell lines = test: Differentiation (CD11b expression) in AML cell lines; type: cell-based, human; settings: vs IgG-treated controls
Experimental: FIG. 10. Induced differentiation in AML cell lines treated with anti-EGFL7. Differentiation analysis was evaluated by CD11b expression. CD11b is depicted as the ratio of the CD11b expression value in the @E7 treated samples to CD11b expression value of the IgG-treated controls. * indicates P<0.05, ** indicates P<0.01.
For the evaluation of apoptosis, cells were stained with Annexin V and 7-AAD as previously described^16, 21 For the evaluation of cell proliferation, AML cell lines were incubated with BrdU, fixed, permeabilized and stained with APC-conjugated anti-BrdU antibody, according to the instructions of the manufacturer (BD Biosciences) and as previously described^16, 21 The proliferating fraction of the cells (i.e., the BrdU positive cells) was evaluated with flow cytometry (LSRII, BD Biosciences). For cell differentiation analysis, cells were stained with an anti-CD11B antibody (BD Biosciences) and analyzed by flow cytometry.

EOL-1 cells = test: EOL-1 AML xenograft in NSG mice; settings: for overall survival: 50 mg/kg intraperitoneal, three times per week, 4 mice per group, vs IgG1 control
Experimental: (FIG. 25A) Overall survival of transplanted NSG mice which were treated with Parsatuzumab or IgG1 control (4 mice per group; dosage 50 mg/kg intraperitoneal injected). […] (FIG. 25B) HES-1 levels were measured after in vivo treatment with Parsatuzumab and IgG1 control, GAPDH was used as loading control.
All studies using animals were carried out in accordance with the OSU institutional guidelines for animal care and under protocols approved by the OSU Institutional Animal Care and Use Committee. All mice used in the experiments were between 8 and 10 weeks of age. Female NOD-scid IL2Rg^null (NSG) mice were transplanted with 10×10^6 EOL-1 cells. Two weeks post-transplant mice were treated with Parsatuzumab or IgG1 control (4 mice per group; dosage 50 mg/kg intraperitoneal), three times per week. Mice were monitored closely for clinical signs of leukemia such as weight loss and hind limb paralysis.
Two-tailed student's t tests were performed using GraphPad Prism version 7 (Graphpad Software, San Diego, Calif.) to analyze in vitro and in vivo experiments unless otherwise noted. P values <0.05 were considered significant. Overall survival for the mouse AML xeonograft model was calculated using the Kaplan-Meier method, and survival curves were compared by the log-rank test.
Briefly, 10×10^6 EOL-1 cells were transplanted into non-conditioned NSG recipient mice. Two weeks post-transplantation, mice were treated with 50 mpk of anti-EGFL7 or IgG1 control antibody three times per week (FIG. 25A).

B1: Parsatuzumab: Anti-human EGFL7 therapeutic antibody (Parsatuzumab) obtained from Creative Biolabs; blocking monoclonal antibody (antibody, chains of the INN, looked up, V domains shown)
VH: EVQLVESGGGLVQPGGSLRLSCAASGYTFIDYYMNWVRQAPGKGLEWVGDINLDNSGTHYNQKFKGRFTISRDKSKNTAYLQMNSLRAEDTAVYYCAREGVYHDYDDYAMDYWGQGTLVTVSS
VL: DIQMTQSPSSLSASVGDRVTITCRTSQSLVHINAITYLHWYQQKPGKAPKLLIYRVSNRFSGVPSRFSGSGSGTDFTLTISSLQPEDFATYYCGQSTHVPLTFGQGTKVEIK
cell growth (numbers of formed colonies in CFU assays) (human AML blasts; 2, 10, 50, or 250 μg/ml for 2 h, then 10 days, vs normal IgG): significant decreases in cell growth
blast growth (number of CFUs) (human AML blasts; increasing concentrations for 4 hours, then 10 days in methylcellulose, n=4, vs IGg1 control): dose dependent decrease in blast growth
HEY1 mRNA (HEY1 mRNA): increases were also observed
differentiation (CD11b expression) (AML cell lines): increased differentiation
overall survival (EOL-1 cells): significant longer overall survival
overall survival (EOL-1 cells; listed as anti-EGFL7): prolonged survival
HES1 protein (western blots) after in vivo treatment (EOL-1 cells; 50 mpk three times per week, vs IgG1 controls): increased levels of HES1 protein
